Data reported in patent publication US20200149062.

Key:
[1] = system: WT-TSC2-FLAG
[2] = system: TSC2-FLAG SA (S1365A)

ERK2, sequence (P28482 2-360): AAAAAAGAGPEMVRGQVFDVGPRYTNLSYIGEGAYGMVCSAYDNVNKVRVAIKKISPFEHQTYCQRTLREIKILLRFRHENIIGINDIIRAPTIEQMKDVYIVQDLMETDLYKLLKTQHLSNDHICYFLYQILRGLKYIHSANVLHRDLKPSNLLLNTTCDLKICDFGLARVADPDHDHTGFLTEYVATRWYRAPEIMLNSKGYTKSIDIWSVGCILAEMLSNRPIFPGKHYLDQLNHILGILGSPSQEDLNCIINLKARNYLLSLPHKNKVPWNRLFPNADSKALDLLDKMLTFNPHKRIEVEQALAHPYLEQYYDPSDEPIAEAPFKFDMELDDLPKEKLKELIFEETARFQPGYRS

## ERK2
[1]
  TSC2 radiolabeling with [gamma-33P]-ATP (in vitro kinase assay on FLAG-immune-precipitate): ERK2-TSC2 phosphorylation served as a positive control

## modified PKG (M438G)
[2]
  thiophosphate ester labeling of TSC2: both radioactive or thiophosphate ester labeling of TSC2 was also seen when SA TSC2 was used

## recombinant PKG (purified active PKG)
[2]
  radioactive labeling of TSC2 ([gamma-33P]-ATP, autoradiography): both radioactive or thiophosphate ester labeling of TSC2 was also seen when SA TSC2 was used
